Measurements as given in paper doi:10.1101/2020.01.07.897124 (bioRxiv, 2020).
Where two headings read alike, the source gives them in different places.

B1: human SOAT1 full-length (1-550), purified, tags removed (enzyme, UniProt P35610 1-550, looked up)
chain: MVGEEKMSLRNRLSKSRENPEEDEDQRNPAKESLETPSNGRIDIKQLIAKKIKLTAEAEELKPFFMKEVGSHFDDFVTNLIEKSASLDNGGCALTTFSVLEGEKNNHRAKDLRAPPEQGKIFIARRSLLDELLEVDHIRTIYHMFIALLILFILSTLVVDYIDEGRLVLEFSLLSYAFGKFPTVVWTWWIMFLSTFSVPYFLFQHWATGYSKSSHPLIRSLFHGFLFMIFQIGVLGFGPTYVVLAYTLPPASRFIIIFEQIRFVMKAHSFVRENVPRVLNSAKEKSSTVPIPTVNQYLYFLFAPTLIYRDSYPRNPTVRWGYVAMKFAQVFGCFFYVYYIFERLCAPLFRNIKQEPFSARVLVLCVFNSILPGVLILFLTFFAFLHCWLNAFAEMLRFGDRMFYKDWWNSTSYSNYYRTWNVVVHDWLYYYAYKDFLWFFSKRFKSAAMLAVFAVSAVVHEYALAVCLSFFYPVLFVLFMFFGMAFNFIVNDSRKKPIWNVLMWTSLFLGNGVLLCFYSQEWYARQHCPLKNPTFLDYVRPRSWTCRYVF
B2: human SOAT1-dimer (66-550), purified, tags removed (domain or fragment, UniProt P35610 66-550, looked up)
chain: MKEVGSHFDDFVTNLIEKSASLDNGGCALTTFSVLEGEKNNHRAKDLRAPPEQGKIFIARRSLLDELLEVDHIRTIYHMFIALLILFILSTLVVDYIDEGRLVLEFSLLSYAFGKFPTVVWTWWIMFLSTFSVPYFLFQHWATGYSKSSHPLIRSLFHGFLFMIFQIGVLGFGPTYVVLAYTLPPASRFIIIFEQIRFVMKAHSFVRENVPRVLNSAKEKSSTVPIPTVNQYLYFLFAPTLIYRDSYPRNPTVRWGYVAMKFAQVFGCFFYVYYIFERLCAPLFRNIKQEPFSARVLVLCVFNSILPGVLILFLTFFAFLHCWLNAFAEMLRFGDRMFYKDWWNSTSYSNYYRTWNVVVHDWLYYYAYKDFLWFFSKRFKSAAMLAVFAVSAVVHEYALAVCLSFFYPVLFVLFMFFGMAFNFIVNDSRKKPIWNVLMWTSLFLGNGVLLCFYSQEWYARQHCPLKNPTFLDYVRPRSWTCRYVF

What was measured:
[1] = molecular target: the molecule itself; assay: cryo-EM structure
[2] = molecular target: the molecule itself; assay: cryo-EM structure; remark: listed apart in the source

Protein	stoichiometry N [1]	stoichiometry N [2]
B1	4	
B2		2
